# Reference: paper PMC5876331, “RING tetramerization is required for nuclear body biogenesis and PML sumoylation” (Nature Communications, 2018)
# Where “and” joins values, the source holds several entries; their conditions need not be identical. Identical values can stand only once.
# B1: PML RING49-104 domain (amino acids 49-104), wild type (domain or fragment, UniProt P29590 49-104, looked up)
# chain: EEEFQFLRCQQCQAEAKCPKLLPCLHTLCSGCLEASGMQCPICQAPWPLGADTPAL
# notes: PML (promyelocytic leukemia protein), RING domain, amino acids 49-104; residues 51-97 visible in the electron density map; Two Zn ions per subunit; not shown: His6, N-terminal, cleaved
# B2: PML RING1-119 (amino acids 1-119), wild type (domain or fragment, UniProt P29590 1-119, looked up)
# chain: MEPAPARSPRPQQDPARPQEPTMPPPETPSEGRQPSPSPSPTERAPASEEEFQFLRCQQCQAEAKCPKLLPCLHTLCSGCLEASGMQCPICQAPWPLGADTPALDNVFFESLQRRLSVY
# notes: PML, amino acids 1-119 (extended RING); theoretical molecular weight 13.1 kDa; also called extended RING; long version of PML RING; not shown: His6, N-terminal, cleaved
# Tests used:
# [1] = molecular target: the molecule itself; assay: AUC; sedimentation velocity, 200,000g, 25 °C, 20 mM Tris, 100 mM NaCl, pH 8.0, with/without 1 mM DTT; 1 mg ml^-1 (wild type also 5 mg ml^-1); SEDFIT c(s)
# [2] = molecular target: the molecule itself; assay: crystal structure; PML RING49-104 crystallised at 26 mg ml^-1, 500 mM ammonium sulfate, 1 M lithium sulfate, 100 mM sodium citrate, 4 °C; 1.6 Å, Zn SAD; 4 molecules per ASU
# [3] = molecular target: the molecule itself; assay: SEC-MALS; pooled gel filtration peaks of PML RING1-119 re-analysed on WTC-015S5 column, 40 μl injection, 0.5 ml min^-1, DAWN HELEOS-II MALS
Protein,stoichiometry N [1],stoichiometry N [2],stoichiometry N [3]
B1,2,4,–
B2,–,–,4 and 2
